Source: the supplement of paper PMC11136658

System: peptide library, one residue held at a place counted from the Y acceptor
Assay: relative phosphorylation of the sub-library (ratio to the mean residue at this position); higher = residue favoured
In short: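 In 384-well plates, purified recombinant kinases were incubated for 90 min with 50 μM ATP containing γ-32P-ATP and biotinylated Tyr-centred peptide libraries, each mixture fixing one residue at a single position between −5 and +5. After capture on streptavidin membranes and rinsing, peptides were quantified by phosphorimaging with ImageQuant. Per-position intensities were scaled to the sum of the 18 (Ser/Thr-free library: 16) randomized residues, then multiplied by that number.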

Sequence of TYRO3, construct: aa455-end, human (Q06418 455-890, looked up): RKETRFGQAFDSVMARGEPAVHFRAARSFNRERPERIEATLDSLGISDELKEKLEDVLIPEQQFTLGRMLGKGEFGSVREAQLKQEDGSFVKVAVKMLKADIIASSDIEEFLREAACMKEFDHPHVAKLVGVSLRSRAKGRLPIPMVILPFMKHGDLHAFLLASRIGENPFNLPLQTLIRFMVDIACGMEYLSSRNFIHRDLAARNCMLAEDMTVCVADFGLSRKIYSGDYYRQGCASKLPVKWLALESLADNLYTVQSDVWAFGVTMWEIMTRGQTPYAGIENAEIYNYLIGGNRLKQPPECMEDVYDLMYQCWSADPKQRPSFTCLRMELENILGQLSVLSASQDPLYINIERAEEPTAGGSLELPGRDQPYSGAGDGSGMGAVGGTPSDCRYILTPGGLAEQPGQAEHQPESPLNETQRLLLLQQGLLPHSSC
Sequence of YES1, construct: Full length, human (P07947 whole entry, looked up): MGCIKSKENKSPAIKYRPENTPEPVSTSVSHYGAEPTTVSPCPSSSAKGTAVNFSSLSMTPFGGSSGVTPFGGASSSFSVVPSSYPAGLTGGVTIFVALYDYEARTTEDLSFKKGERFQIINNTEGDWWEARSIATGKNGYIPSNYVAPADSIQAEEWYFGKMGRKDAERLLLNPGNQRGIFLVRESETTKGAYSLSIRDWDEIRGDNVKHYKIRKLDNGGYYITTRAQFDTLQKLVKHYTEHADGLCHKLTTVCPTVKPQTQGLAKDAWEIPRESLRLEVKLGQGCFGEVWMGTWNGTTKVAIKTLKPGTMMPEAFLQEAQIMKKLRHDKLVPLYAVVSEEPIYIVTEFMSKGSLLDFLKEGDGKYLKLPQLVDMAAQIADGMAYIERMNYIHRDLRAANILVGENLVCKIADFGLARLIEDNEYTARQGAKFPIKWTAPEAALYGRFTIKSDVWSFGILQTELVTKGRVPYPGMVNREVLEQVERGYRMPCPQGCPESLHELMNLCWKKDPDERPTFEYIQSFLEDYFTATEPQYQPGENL
Sequence of TYK2, construct: aa871-end, human (P29597 871-1187, looked up): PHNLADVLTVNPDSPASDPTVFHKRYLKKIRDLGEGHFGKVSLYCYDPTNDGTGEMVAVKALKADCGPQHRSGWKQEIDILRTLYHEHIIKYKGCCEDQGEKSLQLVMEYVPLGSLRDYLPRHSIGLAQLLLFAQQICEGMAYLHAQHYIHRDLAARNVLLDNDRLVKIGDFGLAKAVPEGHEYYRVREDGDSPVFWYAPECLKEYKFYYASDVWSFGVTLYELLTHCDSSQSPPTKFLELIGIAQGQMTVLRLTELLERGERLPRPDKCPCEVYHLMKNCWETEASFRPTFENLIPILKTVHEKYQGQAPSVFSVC
Sequence of WEE1, construct: aa215-end, human (P30291 215-646, looked up): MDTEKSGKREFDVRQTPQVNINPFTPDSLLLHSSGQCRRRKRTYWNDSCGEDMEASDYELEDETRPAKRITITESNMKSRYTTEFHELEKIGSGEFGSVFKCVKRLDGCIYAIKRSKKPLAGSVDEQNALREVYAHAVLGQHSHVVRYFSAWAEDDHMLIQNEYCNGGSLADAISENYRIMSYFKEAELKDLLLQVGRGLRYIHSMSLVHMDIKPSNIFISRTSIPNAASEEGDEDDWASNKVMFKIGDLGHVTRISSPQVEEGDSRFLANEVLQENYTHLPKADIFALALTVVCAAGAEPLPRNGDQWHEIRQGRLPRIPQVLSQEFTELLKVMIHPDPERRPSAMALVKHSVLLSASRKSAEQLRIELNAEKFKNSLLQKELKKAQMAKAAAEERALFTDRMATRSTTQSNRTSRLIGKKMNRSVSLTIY

TYK2, construct: aa871-end, human (from UniProt P29597)
relative phosphorylation
Conditions	at +1	at +2	at +3	at +4	at +5	at -1	at -2	at -3	at -4	at -5
A fixed	1.02	0.925	0.773	0.912	0.996	1.11	0.912	0.961	1.1	1.01
D fixed	0.279	0.572	0.536	0.798	0.795	1.27	0.902	0.975	0.881	0.949
E fixed	0.484	0.712	0.473	0.923	0.803	0.995	0.977	0.946	1.27	0.869
F fixed	1.45	1.04	1.17	1.05	1.02	1.24	0.932	1.02	1.18	1.04
G fixed	0.642	0.869	0.853	1.05	1.1	1.1	1.14	1.04	1.24	1.21
H fixed	1.3	0.828	1.07	1.15	1	1.22	1.09	1.04	0.906	0.96
I fixed	1.79	0.873	1.69	0.909	0.957	1.05	1.06	0.9	1.1	0.983
K fixed	0.544	1.29	0.806	1.24	1.1	0.573	0.956	0.959	0.86	0.995
L fixed	1.58	0.927	1.27	0.899	1.02	1.05	1.07	1.01	1.04	1.08
M fixed	1.59	1.02	1.33	1.17	0.983	0.976	0.858	0.983	0.967	0.959
N fixed	0.565	1.22	0.988	0.981	0.979	0.98	1.2	1.2	0.925	1.09
P fixed	0.381	1.04	0.756	0.756	1.22	1.18	0.892	1.17	1.1	1.09
Q fixed	0.973	1.07	0.967	1.15	0.908	0.854	1	0.981	1.02	1.03
R fixed	0.869	1.51	1.19	1.31	1.19	0.64	1.08	0.935	1.01	1.02
S fixed	0.761	1.06	0.951	0.957	1.03	0.98	0.986	0.995	0.743	0.91
T fixed	0.967	1.01	1.02	0.876	1.01	0.922	0.953	0.925	0.73	0.769
V fixed	1.42	0.823	1.16	0.857	0.882	0.949	0.983	0.963	0.786	0.875
W fixed	1.37	1.2	0.996	1.01	1	0.895	1.01	0.999	1.15	1.16
pThr fixed	0.332	0.465	0.257	0.549	0.579	0.969	0.712	0.903	0.863	0.929
pTyr fixed	1.02	0.822	0.517	0.919	0.694	1.51	0.98	1.1	1.22	1.07

TYRO3, construct: aa455-end, human (from UniProt Q06418)
relative phosphorylation
Conditions	at +1	at +2	at +3	at +4	at +5	at -1	at -2	at -3	at -4	at -5
A fixed	1.64	0.682	0.632	0.906	1.04	0.893	0.982	1	1.15	0.987
D fixed	0.676	0.549	0.322	0.681	0.669	0.66	0.935	1.1	1.03	1.01
E fixed	1.19	0.767	0.252	0.729	0.592	0.56	1.04	1.28	1.19	0.874
F fixed	1.07	1.28	1.44	1.11	0.885	1.23	0.653	0.819	0.883	0.866
G fixed	0.816	0.424	0.71	1.2	1.26	0.524	1.3	1.18	1.35	1.2
H fixed	1.12	0.864	1.36	1.16	0.955	1.4	1.09	1.09	0.966	1.05
I fixed	0.991	1.12	1.58	0.796	0.758	1.63	0.772	0.656	0.826	0.854
K fixed	0.534	1.1	1.03	1.18	1.39	0.719	1.14	0.998	1.04	1.16
L fixed	0.938	1.36	1.19	0.932	0.867	1.88	0.858	0.752	0.843	0.892
M fixed	1.26	1.22	1.18	1.04	0.868	1.09	0.7	0.866	0.864	0.964
N fixed	0.544	0.901	0.626	0.843	1.01	1.03	1.25	1.16	0.956	1.19
P fixed	0.412	0.657	0.864	1.18	1.62	0.821	1.09	1.27	1.3	1.19
Q fixed	1.13	0.962	0.795	1.07	0.936	0.837	1.23	1.06	1.22	1.06
R fixed	0.597	1.13	1.2	1.28	1.33	0.655	1.04	0.959	1.06	1.19
S fixed	1.25	0.799	0.718	1.01	1.06	0.849	1.28	1.2	0.866	0.977
T fixed	1.2	0.996	0.808	0.85	0.982	1.07	1.13	1.09	0.775	0.884
V fixed	1.37	1.21	1.26	0.876	0.831	1.16	0.868	0.755	0.803	0.785
W fixed	1.25	1.98	2.04	1.16	0.946	1	0.649	0.764	0.888	0.868
pThr fixed	1.04	0.889	0.217	0.396	0.43	0.664	0.826	0.977	0.895	0.854
pTyr fixed	0.911	1.28	0.324	0.56	0.399	1.06	0.954	1.2	1.12	0.96

WEE1, construct: aa215-end, human (from UniProt P30291)
relative phosphorylation
Conditions	at +1	at +2	at +3	at +4	at +5	at -1	at -2	at -3	at -4	at -5
A fixed	0.635	0.703	0.557	0.811	0.707	0.72	0.888	0.817	0.926	1.01
D fixed	0.354	0.437	0.425	0.604	0.562	0.619	0.593	0.846	0.849	0.957
E fixed	0.445	0.474	0.464	0.697	0.657	0.467	0.742	0.901	1.22	0.881
F fixed	0.997	1.33	0.969	0.816	0.746	2.25	0.867	1.26	1.13	1.14
G fixed	1.03	0.713	0.776	0.921	0.88	0.693	1.54	1.06	1.24	1.15
H fixed	0.739	0.685	0.93	0.927	1.05	1.04	0.85	0.748	0.809	0.762
I fixed	1	1.04	1.2	0.781	0.881	1.15	0.943	1.24	1.21	1.03
K fixed	1.44	1.9	2.15	2	1.9	0.93	1.04	1.1	0.986	1.1
L fixed	0.815	0.945	0.806	0.752	0.833	1.61	0.866	1.11	1.05	1.15
M fixed	0.892	1.03	0.922	1.11	0.9	1.2	0.741	1.06	0.977	1.01
N fixed	0.952	0.875	0.74	0.762	0.89	1.45	1	0.817	0.747	0.872
P fixed	0.598	0.573	0.636	0.758	0.755	0.753	0.84	1	0.995	0.956
Q fixed	0.913	0.856	0.772	0.98	0.804	0.564	0.733	0.691	0.945	0.88
R fixed	4.18	2.37	3.44	2.25	2.98	0.975	1.54	1.21	1.47	1.15
V fixed	0.819	0.941	0.93	0.751	0.675	1.11	0.924	1.12	0.907	1.02
W fixed	0.904	1.37	0.896	1.23	0.812	1.17	0.897	1.22	1.18	1.37
pThr fixed	0.975	0.775	0.584	0.671	0.815	0.866	1.12	1.3	0.896	1.06
pTyr fixed	1.06	1.05	0.703	0.834	0.882	7.21	1.38	1.76	1.33	1.25

YES1, construct: Full length, human (from UniProt P07947)
relative phosphorylation
Conditions	at +1	at +2	at +3	at +4	at +5	at -1	at -2	at -3	at -4	at -5
A fixed	1.59	1.07	0.621	0.835	0.959	0.583	0.987	0.821	0.944	0.967
D fixed	0.822	0.636	0.492	0.759	0.76	0.641	1.35	1.7	1.42	1.35
E fixed	1.32	1.28	0.546	0.885	0.867	0.819	1.41	2.16	1.57	1.1
F fixed	0.723	1.08	2.83	1.24	1.13	0.652	0.57	0.794	0.731	0.861
G fixed	2.83	0.751	0.668	1.01	0.957	0.569	1.11	1.04	1.25	1.03
H fixed	0.8	0.71	1	1.12	1.07	0.733	1.27	1.03	1.02	1.02
I fixed	0.589	1.15	1.52	0.814	0.675	3.12	0.56	0.559	0.75	0.675
K fixed	0.418	0.721	0.552	1.06	1.19	0.468	0.873	0.697	0.989	1.23
L fixed	0.596	1.08	1.46	0.866	0.841	1.71	0.679	0.66	0.951	0.719
M fixed	1.11	1.19	1.01	1.29	0.932	0.974	0.727	0.74	0.952	0.834
N fixed	0.644	0.791	0.657	0.899	1.09	0.463	1.4	1.39	1.01	1.35
P fixed	0.462	0.724	0.518	0.785	1.37	1.3	1.31	1.02	1.12	1.22
Q fixed	0.897	1	0.599	1.17	1.01	0.521	1.18	1.15	1.09	1.1
R fixed	0.538	0.951	0.913	1.36	1.51	0.399	0.95	0.76	1.01	1.16
S fixed	1.13	1.3	0.672	0.938	1.07	0.518	1.31	1.08	0.846	0.949
T fixed	1.08	1.44	0.908	1.01	1	1.51	0.968	0.862	0.727	0.908
V fixed	0.892	1.3	1.37	0.842	0.749	2.26	0.663	0.558	0.857	0.783
W fixed	1.54	0.815	1.67	1.11	0.821	0.766	0.69	0.979	0.762	0.755
pThr fixed	1.21	1.33	0.497	0.667	0.674	1.07	1.1	1.13	1.07	1.17
pTyr fixed	2.21	1.24	0.636	0.841	0.739	0.806	1.21	1.18	1.27	1.2
